The results in this text go back to US20220119531A1.

Broadly, the pEC50 is −log10 of the EC50, conventionally taken in molar units.

The target in the assay is human PD-L1 expressed on mammalian cells (human) (UniProt Q9NZQ7). Nature of the assay: FACS on PDL1-Raji cells by the text; sheet title 'Cell-Based Binding Raji-PDL1 cells', y axis labelled IL2 (ng/ml); EC50 table under the plot, unit taken from the axis Concentration (nM).

pEC50: −log10 of the molar value.

human PD-L1 expressed on mammalian cells (human), sequence (Q9NZQ7 19-290): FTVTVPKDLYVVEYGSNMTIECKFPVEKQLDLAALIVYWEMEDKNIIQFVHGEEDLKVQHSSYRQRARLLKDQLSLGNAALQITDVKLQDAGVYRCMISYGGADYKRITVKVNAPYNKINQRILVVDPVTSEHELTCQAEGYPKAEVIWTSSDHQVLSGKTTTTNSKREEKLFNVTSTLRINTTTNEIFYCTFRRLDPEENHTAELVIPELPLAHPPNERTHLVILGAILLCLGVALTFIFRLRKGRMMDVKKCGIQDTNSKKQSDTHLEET

In turn, Tecentriq (atezolizumab) (antibody) had a pEC50 of 9.05.
